# Patent US9260500B2, “Peptide and use thereof” (Takeda Pharmaceutical Company Limited, priority 2009, dated 2016)
# Non-standard residues stand in square brackets, D forms with d. Cha = N[C@@H](CC1CCCCC1)C(=O)O; dIva = CC[C@@](C)(N)C(=O)O; dPip = O=C(O)[C@H]1CCCCN1; dNMeA = CN[C@H](C)C(=O)O; Aib = CC(C)(N)C(=O)O
# Columns and labels:
# human Y2 receptor [1] = target: T1, human Y2 receptor (Homo sapiens, UniProt P49146); assay: Receptor Binding Assay (RBA) for Human Y2, [125I]-PYY displacement on hY2R/CHO membrane fraction; conditions: IC50 of test compound/IC50 of PYY(3-36) (PYY(3-36) taken as 1)
# T1 construct: expressed in transfected cells; membrane fraction
# T1 sequence (P49146 1-381): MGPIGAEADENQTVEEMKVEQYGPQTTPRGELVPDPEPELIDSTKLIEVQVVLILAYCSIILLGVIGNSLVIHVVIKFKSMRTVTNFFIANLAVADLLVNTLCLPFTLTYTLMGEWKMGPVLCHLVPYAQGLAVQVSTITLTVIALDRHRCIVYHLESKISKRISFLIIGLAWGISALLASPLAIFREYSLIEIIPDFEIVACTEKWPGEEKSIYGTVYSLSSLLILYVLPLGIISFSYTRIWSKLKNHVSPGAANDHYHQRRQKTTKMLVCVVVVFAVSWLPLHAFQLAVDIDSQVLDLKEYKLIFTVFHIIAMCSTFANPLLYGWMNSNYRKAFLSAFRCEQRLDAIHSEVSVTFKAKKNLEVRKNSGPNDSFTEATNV
# Experimental: (1) Construction of Expression Plasmid for the Human Y2 Receptor (Y2R) Gene
# PCR was performed by a reaction using Pfu DNA polymerase ([…]), with a human brain cDNA (PT3158-1, Clontech) as the template, wherein synthetic DNAs with the following sequences were used as a combination of 5′ and 3′ primers, whereby the human Y2R gene was cloned. Primer 1 was prepared on the basis of base sequence information on the human Y2R gene (Refseq ID No. NM_000910) with the addition of Kozak's consensus sequence. Primer 2 was prepared on the basis of base sequence information on the human Y2R gene.
# The PCR product obtained was cloned into pCR4-Blunt-TOPO (Invitrogen), and the plasmid was extracted according to a conventional method (QIAwell 8 Plus, QIAGEN). After confirming the base sequence, the human Y2R gene was re-cloned by a PCR reaction with the plasmid DNA as the template, using Primer 1 as the 5′ primer and Primer 2 as the 3′ primer. The PCR was performed using the Pyrobest DNA polymerase (TaKaRa). The PCR product obtained was re-cloned into pCR-Blunt II-TOPO (Invitrogen), and the plasmid was extracted according to a conventional method (QIAGEN). An Xho I restriction enzyme digestion site and an Spe I restriction enzyme digestion site are present in the cloning site of the pCR-Blunt II-TOPO; a plasmid clone was selected wherein the human Y2R gene was inserted in the orientation such that the Xho I restriction enzyme digestion site was positioned upstream of Primer 1, and the Spe I restriction enzyme digestion site was positioned downstream of Primer 2. After confirming the base sequence, the plasmid clone was digested with the restriction enzymes Xho I and Spe I to yield a DNA fragment. The DNA fragment was inserted into the animal cell expression vector pAKKO-111H (the same plasmid as pAKKO-1.111H described in Biochem. Biophys. Acta, Hinuma, S. et al., 1219, 251-259 (1994)), which was enzymatically digested with Sal I and Spe I, to yield the expression plasmid pAK-hY2R (pAKKO-111H/Y2R).
# (2) Test Method: Receptor Binding Assay (RBA) for Human Y2
# A human NPY2R (hY2R) stable expression cell line was acquired by transducing the animal cell expression plasmid pAK-hY2R into CHO/dhfr-cells using the CellPhect Transfection kit (Amersham Pharmacia Biotech Co.). First, 240 μl of Buffer A (attached to the CellPhect Transfection kit) was added to 9.6 μg of the plasmid DNA dissolved in 240 μl of distilled water; this mixture was stirred and allowed to stand for 10 minutes, after which 480 μL of Buffer B (attached to the CellPhect Transfection kit) was added, and the mixture was vigorously stirred to form a liposome containing the DNA. 2.5×10^5 or 4×10^5 CHO/dhfr− cells (obtained from ATCC) were seeded to 60 mm petri dishes, and cultured in Ham's F-12 medium (Sigma Co.) containing 10% fetal bovine serum (BioWest Co.) at 37° C. in 5% gaseous carbon dioxide for 1 day, after which 480 μL of the liposome was added drop by drop on to the cells in each petri dish. This was cultured at 37° C. in 5% gaseous carbon dioxide for 6 hours, after which the cells were twice washed with serum-free Ham's F-12 medium; 3 mL of 15% glycerol was added onto the cells in the petri dish and treated for 2 minutes. This was again washed 3 times with serum-free Ham's F-12 medium, after which the cells were cultured in Ham's F-12 medium containing 10% fetal bovine serum at 37° C. in 5% gaseous carbon dioxide. The cells were dispersed by trypsinization and recovered from the petri dishes, and seeded to a 6-well plate at 2.5×10^4 or 4×10^4 cells per well; cultivation was begun in Dulbecco's modified Eagle medium <DMEM> medium (Sigma Co.) containing dialyzed 10% fetal bovine serum (Invitrogen Co.) at 37° C. in 5% gaseous carbon dioxide. Since plasmid-introduced transformant CHO cells grow in the medium, whereas cells without plasmid introduction die gradually, about 20 colonies of transformed CHO cell that had grown 9-13 days after the start of the cultivation were isolated. […]
# human Y2 receptor [2] = target: T1, human Y2 receptor; assay: Human Y2 Receptor G Protein Binding Assay (GBA), [35S]GTPγS; assay type: biochemical; conditions: EC50 of test compound/EC50 of PYY(3-36) (PYY3-36 taken as 1), hY2R/CHO membrane fraction
# Experimental: (3) Test Method: Human Y2 Receptor G Protein Binding Assay (GBA)
# The agonist activity of the compound of the present invention against the human Y2 receptor was measured by the method described below.
# 2 μL of the test compound, serially diluted with DMSO from 100 μM to 1 nM, was dispensed to a 96-well plate, and 100 μL of the membrane fraction, previously diluted with an assay buffer (50 mM Tris, 5 mM MgCl2, 150 mM NaCl, […], 0.03% NaN3, 0.1% BSA, pH 7.4) to 1 μg protein/mL, was dispensed thereto, subsequently, 100 μL of a [^35S]GTPγS (NEG030H, PerkinElmer, previously diluted with the assay buffer to 1 nM) was added, and they were mixed by pipetting. After incubation at room temperature for 120 minutes, the mixture was filtered through the cell harvester FilterMate (PerkinElmer) using the UniFilter-96 GF/C (PerkinElmer), and the filter was washed 3 times with a filtering buffer (50 mM Tris, 5 mM MgCl2, 150 mM NaCl, 0.03% NaN3, 0.05% CHAPS, pH 7.4). Thereafter, UniFilter-96 GF/C was dried in a mechanical drier for 1 hour, 15 μl of the liquid scintillator MicroScint O (PerkinElmer) was added to each well, and a measurement was taken using TopCount (PerkinElmer). The data obtained were analyzed using Prism to calculate the EC50 value. The agonist activity of the test compound was expressed as a ratio to the EC50 value of PYY3-36 taken as 1 (EC50 Ratio: EC50 of test compound/EC50 of PYY(3-36)). The results are shown in the GBA column in Table 5 (Table 5-1-Table 5-10).
Substance,RBA IC50 Ratio (human Y2 receptor [1]),GBA EC50 Ratio (human Y2 receptor [2])
"Ac-[D-Iva23, D-Pro24, Cha27,28,36, Aib31]-PYY(23-36) (Ac-[dIva][dP]RH[Cha][Cha]NL[Aib]TRQR[Cha]-NH2; SMILES CC[C@@](C)(NC(C)=O)C(=O)N1CCC[C@@H]1C(=O)N[C@@H](CCCNC(=N)N)C(=O)N[C@@H](Cc1c[nH]cn1)C(=O)N[C@@H](CC1CCCCC1)C(=O)N[C@@H](CC1CCCCC1)C(=O)N[C@@H](CC(N)=O)C(=O)N[C@@H](CC(C)C)C(=O)NC(C)(C)C(=O)N[C@H](C(=O)N[C@@H](CCCNC(=N)N)C(=O)N[C@@H](CCC(N)=O)C(=O)N[C@@H](CCCNC(=N)N)C(=O)N[C@@H](CC1CCCCC1)C(N)=O)[C@@H](C)O) [compound No. 183]",20,31
"Ac-[D-MeAla22, D-Pro24, Cha27,28,36, Aib31]-PYY(22-36) (Ac-[dNMeA]S[dP]RH[Cha][Cha]NL[Aib]TRQR[Cha]-NH2; SMILES CC(=O)N(C)[C@H](C)C(=O)N[C@@H](CO)C(=O)N1CCC[C@@H]1C(=O)N[C@@H](CCCNC(=N)N)C(=O)N[C@@H](Cc1c[nH]cn1)C(=O)N[C@@H](CC1CCCCC1)C(=O)N[C@@H](CC1CCCCC1)C(=O)N[C@@H](CC(N)=O)C(=O)N[C@@H](CC(C)C)C(=O)NC(C)(C)C(=O)N[C@H](C(=O)N[C@@H](CCCNC(=N)N)C(=O)N[C@@H](CCC(N)=O)C(=O)N[C@@H](CCCNC(=N)N)C(=O)N[C@@H](CC1CCCCC1)C(N)=O)[C@@H](C)O) [compound No. 124]",3.5,6.1
"Ac-[D-MeAla24, Cha27,28,36, Aib31]-PYY(23-36) (Ac-S[dNMeA]RH[Cha][Cha]NL[Aib]TRQR[Cha]-NH2; SMILES CC(=O)N[C@@H](CO)C(=O)N(C)[C@H](C)C(=O)N[C@@H](CCCNC(=N)N)C(=O)N[C@@H](Cc1c[nH]cn1)C(=O)N[C@@H](CC1CCCCC1)C(=O)N[C@@H](CC1CCCCC1)C(=O)N[C@@H](CC(N)=O)C(=O)N[C@@H](CC(C)C)C(=O)NC(C)(C)C(=O)N[C@H](C(=O)N[C@@H](CCCNC(=N)N)C(=O)N[C@@H](CCC(N)=O)C(=O)N[C@@H](CCCNC(=N)N)C(=O)N[C@@H](CC1CCCCC1)C(N)=O)[C@@H](C)O) [compound No. 110]",3.4,2.2
"Ac-[D-Pic(2)24, Cha27,28,36, Aib31]-PYY(23-36) (Ac-S[dPip]RH[Cha][Cha]NL[Aib]TRQR[Cha]-NH2; SMILES CC(=O)N[C@@H](CO)C(=O)N1CCCC[C@@H]1C(=O)N[C@@H](CCCNC(=N)N)C(=O)N[C@@H](Cc1c[nH]cn1)C(=O)N[C@@H](CC1CCCCC1)C(=O)N[C@@H](CC1CCCCC1)C(=O)N[C@@H](CC(N)=O)C(=O)N[C@@H](CC(C)C)C(=O)NC(C)(C)C(=O)N[C@H](C(=O)N[C@@H](CCCNC(=N)N)C(=O)N[C@@H](CCC(N)=O)C(=O)N[C@@H](CCCNC(=N)N)C(=O)N[C@@H](CC1CCCCC1)C(N)=O)[C@@H](C)O) [compound No. 119]",9.9,5.8
"Ac-[D-Pro24, Aib25,28,31, Cha27,36, Lys30]-PYY(23-36) (Ac-S[dP][Aib]H[Cha][Aib]NK[Aib]TRQR[Cha]-NH2; SMILES CC(=O)N[C@@H](CO)C(=O)N1CCC[C@@H]1C(=O)NC(C)(C)C(=O)N[C@@H](Cc1c[nH]cn1)C(=O)N[C@@H](CC1CCCCC1)C(=O)NC(C)(C)C(=O)N[C@@H](CC(N)=O)C(=O)N[C@@H](CCCCN)C(=O)NC(C)(C)C(=O)N[C@H](C(=O)N[C@@H](CCCNC(=N)N)C(=O)N[C@@H](CCC(N)=O)C(=O)N[C@@H](CCCNC(=N)N)C(=O)N[C@@H](CC1CCCCC1)C(N)=O)[C@@H](C)O) [compound No. 238]",24,11
